Values belong to the binder of their own block, whether it stands above or below them.
Biological target: T1, FcγRIIIa extracellular domain with C-terminal His tag (human, UniProt P08637 17-208)
T1 construct: extracellular domain; also called FcgRIIIa; 3a; not shown: His tag attached to the C terminus
Assay: SPR Biacore, captured antibody, FcγR analyte, relative binding
Description: Analysis of interaction between objective antibody and the FcγR was carried out using Biacore T100 (GE Healthcare). HBS-EP+ (GE Healthcare) was used as the running buffer, and the measurement temperature was set to 25° C. Chips produced by immobilizing the antigen peptide by the amine coupling method to a Series S Sencor Chip CM5 (GE Healthcare), or alternatively, chips produced by allowing preliminarily biotinylated antigen peptides to interact with and immobilize onto a Series S Sensor Chip SA (certified) (GE Healthcare) were used. Antibodies of interest were captured onto an antigen peptide-immobilized chip, and allowed to interact to each FcγR diluted with running buffer. To regenerate and repeatedly use the chip, the antibodies captured on the chip were washed off by reacting 10 mM glycine-HCl, pH 1.5.

T1 sequence (P08637 17-208): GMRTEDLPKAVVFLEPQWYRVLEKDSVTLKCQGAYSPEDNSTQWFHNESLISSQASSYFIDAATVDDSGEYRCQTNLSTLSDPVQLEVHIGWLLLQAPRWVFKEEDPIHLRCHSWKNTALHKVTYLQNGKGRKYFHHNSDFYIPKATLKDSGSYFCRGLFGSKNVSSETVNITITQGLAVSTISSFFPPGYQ

B1: GpH7-A5/GpH7-B3 variant A330_04F/GpL16-k0 (antibody, human IgG1, kappa)
heavy 1: not shown
heavy 2: not shown
light: DIVMTQSPLSLPVTPGEPASISCQASESLVHSNRNTYLHWYLQKPGQSPQLLIYKVSNRFSGVPDRFSGSGSGTDFTLKISRVEAEDVGVYYCSQNTHVPPTFGQGTKVEIERTVAAPSVFIFPPSDEQLKSGTASVVCLLNNFYPREAKVQWKVDNALQSGNSQESVTEQDSKDSTYSLSSTLTLSKADYEKHKVYACEVTHQGLSSPVTKSFNRGEC
notes: also called He Ab A330_04F
He/Con_3a: 147 % of HeCon Ab GpH7-A5/GpH7-B3/GpL16-k0 (=100)

B2: GpH7-A5/GpH7-B3 variant A330_08L/GpL16-k0 (antibody, human IgG1, kappa)
heavy 1: not shown
heavy 2: not shown
light: DIVMTQSPLSLPVTPGEPASISCQASESLVHSNRNTYLHWYLQKPGQSPQLLIYKVSNRFSGVPDRFSGSGSGTDFTLKISRVEAEDVGVYYCSQNTHVPPTFGQGTKVEIERTVAAPSVFIFPPSDEQLKSGTASVVCLLNNFYPREAKVQWKVDNALQSGNSQESVTEQDSKDSTYSLSSTLTLSKADYEKHKVYACEVTHQGLSSPVTKSFNRGEC
notes: also called He Ab A330_08L
He/Con_3a: 124 % of HeCon Ab GpH7-A5/GpH7-B3/GpL16-k0 (=100)

B4: GpH7-A5/GpH7-B3 variant H268_10E/GpL16-k0 (antibody, human IgG1, kappa)
heavy 1: not shown
heavy 2: not shown
light: DIVMTQSPLSLPVTPGEPASISCQASESLVHSNRNTYLHWYLQKPGQSPQLLIYKVSNRFSGVPDRFSGSGSGTDFTLKISRVEAEDVGVYYCSQNTHVPPTFGQGTKVEIERTVAAPSVFIFPPSDEQLKSGTASVVCLLNNFYPREAKVQWKVDNALQSGNSQESVTEQDSKDSTYSLSSTLTLSKADYEKHKVYACEVTHQGLSSPVTKSFNRGEC
notes: also called He Ab H268_10E
He/Con_3a: 186 % of HeCon Ab GpH7-A5/GpH7-B3/GpL16-k0 (=100)

B5: GpH7-A5/GpH7-B3 variant I332_01G/GpL16-k0 (antibody, human IgG1, kappa)
heavy 1: not shown
heavy 2: not shown
light: DIVMTQSPLSLPVTPGEPASISCQASESLVHSNRNTYLHWYLQKPGQSPQLLIYKVSNRFSGVPDRFSGSGSGTDFTLKISRVEAEDVGVYYCSQNTHVPPTFGQGTKVEIERTVAAPSVFIFPPSDEQLKSGTASVVCLLNNFYPREAKVQWKVDNALQSGNSQESVTEQDSKDSTYSLSSTLTLSKADYEKHKVYACEVTHQGLSSPVTKSFNRGEC
notes: also called He Ab I332_01G
He/Con_3a: 111 % of HeCon Ab GpH7-A5/GpH7-B3/GpL16-k0 (=100)

B8: GpH7-A5/GpH7-B3 variant I332_02A/GpL16-k0 (antibody, human IgG1, kappa)
heavy 1: not shown
heavy 2: not shown
light: DIVMTQSPLSLPVTPGEPASISCQASESLVHSNRNTYLHWYLQKPGQSPQLLIYKVSNRFSGVPDRFSGSGSGTDFTLKISRVEAEDVGVYYCSQNTHVPPTFGQGTKVEIERTVAAPSVFIFPPSDEQLKSGTASVVCLLNNFYPREAKVQWKVDNALQSGNSQESVTEQDSKDSTYSLSSTLTLSKADYEKHKVYACEVTHQGLSSPVTKSFNRGEC
notes: also called He Ab I332_02A
He/Con_3a: 112 % of HeCon Ab GpH7-A5/GpH7-B3/GpL16-k0 (=100)

B9: GpH7-A5/GpH7-B3 variant A330_20W/GpL16-k0 (antibody, human IgG1, kappa)
heavy 1: not shown
heavy 2: not shown
light: DIVMTQSPLSLPVTPGEPASISCQASESLVHSNRNTYLHWYLQKPGQSPQLLIYKVSNRFSGVPDRFSGSGSGTDFTLKISRVEAEDVGVYYCSQNTHVPPTFGQGTKVEIERTVAAPSVFIFPPSDEQLKSGTASVVCLLNNFYPREAKVQWKVDNALQSGNSQESVTEQDSKDSTYSLSSTLTLSKADYEKHKVYACEVTHQGLSSPVTKSFNRGEC
notes: also called He Ab A330_20W
He/Con_3a: 104 % of HeCon Ab GpH7-A5/GpH7-B3/GpL16-k0 (=100)

B10: GpH7-A5/GpH7-B3 variant E333_16H/GpL16-k0 (antibody, human IgG1, kappa)
heavy 1: not shown
heavy 2: not shown
light: DIVMTQSPLSLPVTPGEPASISCQASESLVHSNRNTYLHWYLQKPGQSPQLLIYKVSNRFSGVPDRFSGSGSGTDFTLKISRVEAEDVGVYYCSQNTHVPPTFGQGTKVEIERTVAAPSVFIFPPSDEQLKSGTASVVCLLNNFYPREAKVQWKVDNALQSGNSQESVTEQDSKDSTYSLSSTLTLSKADYEKHKVYACEVTHQGLSSPVTKSFNRGEC
notes: also called He Ab E333_16H
He/Con_3a: 103 % of HeCon Ab GpH7-A5/GpH7-B3/GpL16-k0 (=100)

B15: GpH7-A5/GpH7-B3 variant H268_09D/GpL16-k0 (antibody, human IgG1, kappa)
heavy 1: not shown
heavy 2: not shown
light: DIVMTQSPLSLPVTPGEPASISCQASESLVHSNRNTYLHWYLQKPGQSPQLLIYKVSNRFSGVPDRFSGSGSGTDFTLKISRVEAEDVGVYYCSQNTHVPPTFGQGTKVEIERTVAAPSVFIFPPSDEQLKSGTASVVCLLNNFYPREAKVQWKVDNALQSGNSQESVTEQDSKDSTYSLSSTLTLSKADYEKHKVYACEVTHQGLSSPVTKSFNRGEC
notes: also called He Ab H268_09D
He/Con_3a: 197 % of HeCon Ab GpH7-A5/GpH7-B3/GpL16-k0 (=100)

B16: GpH7-A5/GpH7-B3 variant H268_13S/GpL16-k0 (antibody, human IgG1, kappa)
heavy 1: not shown
heavy 2: not shown
light: DIVMTQSPLSLPVTPGEPASISCQASESLVHSNRNTYLHWYLQKPGQSPQLLIYKVSNRFSGVPDRFSGSGSGTDFTLKISRVEAEDVGVYYCSQNTHVPPTFGQGTKVEIERTVAAPSVFIFPPSDEQLKSGTASVVCLLNNFYPREAKVQWKVDNALQSGNSQESVTEQDSKDSTYSLSSTLTLSKADYEKHKVYACEVTHQGLSSPVTKSFNRGEC
notes: also called He Ab H268_13S
He/Con_3a: 122 % of HeCon Ab GpH7-A5/GpH7-B3/GpL16-k0 (=100)

Other lines, results leading:

He/Con_3a: 120 % of HeCon Ab GpH7-A5/GpH7-B3/GpL16-k0 (=100)
B3: GpH7-A5/GpH7-B3 variant I332_14T/GpL16-k0 (antibody, human IgG1, kappa)
heavy 1: not shown
heavy 2: not shown
light: DIVMTQSPLSLPVTPGEPASISCQASESLVHSNRNTYLHWYLQKPGQSPQLLIYKVSNRFSGVPDRFSGSGSGTDFTLKISRVEAEDVGVYYCSQNTHVPPTFGQGTKVEIERTVAAPSVFIFPPSDEQLKSGTASVVCLLNNFYPREAKVQWKVDNALQSGNSQESVTEQDSKDSTYSLSSTLTLSKADYEKHKVYACEVTHQGLSSPVTKSFNRGEC
notes: also called He Ab I332_14T

He/Con_3a: 207 % of HeCon Ab GpH7-A5/GpH7-B3/GpL16-k0 (=100)
B6: GpH7-A5/GpH7-B3 variant I332_09D/GpL16-k0 (antibody, human IgG1, kappa)
heavy 1: not shown
heavy 2: not shown
light: DIVMTQSPLSLPVTPGEPASISCQASESLVHSNRNTYLHWYLQKPGQSPQLLIYKVSNRFSGVPDRFSGSGSGTDFTLKISRVEAEDVGVYYCSQNTHVPPTFGQGTKVEIERTVAAPSVFIFPPSDEQLKSGTASVVCLLNNFYPREAKVQWKVDNALQSGNSQESVTEQDSKDSTYSLSSTLTLSKADYEKHKVYACEVTHQGLSSPVTKSFNRGEC
notes: also called He Ab I332_09D

He/Con_3a: 233 % of HeCon Ab GpH7-A5/GpH7-B3/GpL16-k0 (=100)
B7: GpH7-A5/GpH7-B3 variant I332_10E/GpL16-k0 (antibody, human IgG1, kappa)
heavy 1: not shown
heavy 2: not shown
light: DIVMTQSPLSLPVTPGEPASISCQASESLVHSNRNTYLHWYLQKPGQSPQLLIYKVSNRFSGVPDRFSGSGSGTDFTLKISRVEAEDVGVYYCSQNTHVPPTFGQGTKVEIERTVAAPSVFIFPPSDEQLKSGTASVVCLLNNFYPREAKVQWKVDNALQSGNSQESVTEQDSKDSTYSLSSTLTLSKADYEKHKVYACEVTHQGLSSPVTKSFNRGEC
notes: also called He Ab I332_10E

He/Con_3a: 111 % of HeCon Ab GpH7-A5/GpH7-B3/GpL16-k0 (=100)
B11: GpH7-A5/GpH7-B3 variant I336_02A/GpL16-k0 (antibody, human IgG1, kappa)
heavy 1: not shown
heavy 2: not shown
light: DIVMTQSPLSLPVTPGEPASISCQASESLVHSNRNTYLHWYLQKPGQSPQLLIYKVSNRFSGVPDRFSGSGSGTDFTLKISRVEAEDVGVYYCSQNTHVPPTFGQGTKVEIERTVAAPSVFIFPPSDEQLKSGTASVVCLLNNFYPREAKVQWKVDNALQSGNSQESVTEQDSKDSTYSLSSTLTLSKADYEKHKVYACEVTHQGLSSPVTKSFNRGEC
notes: also called He Ab I336_02A

He/Con_3a: 110 % of HeCon Ab GpH7-A5/GpH7-B3/GpL16-k0 (=100)
B12: GpH7-A5/GpH7-B3 variant I332_19Q/GpL16-k0 (antibody, human IgG1, kappa)
heavy 1: not shown
heavy 2: not shown
light: DIVMTQSPLSLPVTPGEPASISCQASESLVHSNRNTYLHWYLQKPGQSPQLLIYKVSNRFSGVPDRFSGSGSGTDFTLKISRVEAEDVGVYYCSQNTHVPPTFGQGTKVEIERTVAAPSVFIFPPSDEQLKSGTASVVCLLNNFYPREAKVQWKVDNALQSGNSQESVTEQDSKDSTYSLSSTLTLSKADYEKHKVYACEVTHQGLSSPVTKSFNRGEC
notes: also called He Ab I332_19Q

He/Con_3a: 101 % of HeCon Ab GpH7-A5/GpH7-B3/GpL16-k0 (=100)
B13: GpH7-A5/GpH7-B3 variant I332_15Y/GpL16-k0 (antibody, human IgG1, kappa)
heavy 1: not shown
heavy 2: not shown
light: DIVMTQSPLSLPVTPGEPASISCQASESLVHSNRNTYLHWYLQKPGQSPQLLIYKVSNRFSGVPDRFSGSGSGTDFTLKISRVEAEDVGVYYCSQNTHVPPTFGQGTKVEIERTVAAPSVFIFPPSDEQLKSGTASVVCLLNNFYPREAKVQWKVDNALQSGNSQESVTEQDSKDSTYSLSSTLTLSKADYEKHKVYACEVTHQGLSSPVTKSFNRGEC
notes: also called He Ab I332_15Y

He/Con_3a: 104 % of HeCon Ab GpH7-A5/GpH7-B3/GpL16-k0 (=100)
B14: GpH7-A5/GpH7-B3 variant I332_13S/GpL16-k0 (antibody, human IgG1, kappa)
heavy 1: not shown
heavy 2: not shown
light: DIVMTQSPLSLPVTPGEPASISCQASESLVHSNRNTYLHWYLQKPGQSPQLLIYKVSNRFSGVPDRFSGSGSGTDFTLKISRVEAEDVGVYYCSQNTHVPPTFGQGTKVEIERTVAAPSVFIFPPSDEQLKSGTASVVCLLNNFYPREAKVQWKVDNALQSGNSQESVTEQDSKDSTYSLSSTLTLSKADYEKHKVYACEVTHQGLSSPVTKSFNRGEC
notes: also called He Ab I332_13S

— patent US20150344570A1 (published 2015)
